Reference: patent publication US20180074053A1 (priority 2016, published 2018)
Non-standard residues stand in square brackets, D forms with d. No end group written: not given here.

What was measured:
HUVEC cells = details: 4 mM time course, 0.05-32.0 mM for 60 minutes; FIGS. 16, 17
Procedure: Briefly, HUVEC cells, previously plated in 96-well plate, were washed and the media changed to DMEM with 3% FBS for overnight incubation and cell starvation. On the day of the experiment, the cells were incubated with DAF-FM diacetate (Molecular Probes, catalog #D23842) at the final concentration of 7-10 nM for 30 minutes. […] Every treatment was performed in triplicate. The fluorescence was detected starting at 10 min with exc/em of 495 nm/515 nm.
The background signal (fluorescence signal from cells that were not loaded with dye) was subtracted from the other measurements.
Briefly, HUVEC cells, previously plated in 96-well plate, were washed and the media changed to DMEM with 3% FBS for overnight incubation and cell starvation. On the day of the experiment, the cells were incubated with DAF-FM diacetate (Molecular Probes, catalog #D23842) at the final concentration of 7-10 nM for 30 minutes. […] Every treatment was performed in triplicate. The fluorescence was detected 60 minutes with exc/em of 495 nm/515 nm.

MCHR2 = MCHR2 (UniProt Q969V1 1-340, limits assumed); test: cell-based or functional assay
[1] = molecular target: Motilin (GPCR target; motilin receptor) (UniProt O43193 1-412, limits assumed); test: cell-based or functional assay
Chain of Motilin (GPCR target; motilin receptor) (O43193 whole entry): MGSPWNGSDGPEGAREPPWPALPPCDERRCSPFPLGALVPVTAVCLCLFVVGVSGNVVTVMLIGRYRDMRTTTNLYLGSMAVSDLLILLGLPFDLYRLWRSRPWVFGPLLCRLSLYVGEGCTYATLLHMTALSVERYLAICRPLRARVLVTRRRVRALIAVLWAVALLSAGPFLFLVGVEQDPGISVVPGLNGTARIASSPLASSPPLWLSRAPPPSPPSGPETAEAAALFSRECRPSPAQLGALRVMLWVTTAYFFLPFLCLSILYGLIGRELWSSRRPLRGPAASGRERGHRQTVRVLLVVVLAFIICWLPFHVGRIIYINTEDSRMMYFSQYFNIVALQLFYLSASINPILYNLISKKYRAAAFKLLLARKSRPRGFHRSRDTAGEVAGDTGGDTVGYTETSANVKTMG

MRGX1 = MRGX1 (UniProt Q96LB2 1-322, limits assumed); test: cell-based or functional assay
Chain of MRGX1 (Q96LB2 whole entry): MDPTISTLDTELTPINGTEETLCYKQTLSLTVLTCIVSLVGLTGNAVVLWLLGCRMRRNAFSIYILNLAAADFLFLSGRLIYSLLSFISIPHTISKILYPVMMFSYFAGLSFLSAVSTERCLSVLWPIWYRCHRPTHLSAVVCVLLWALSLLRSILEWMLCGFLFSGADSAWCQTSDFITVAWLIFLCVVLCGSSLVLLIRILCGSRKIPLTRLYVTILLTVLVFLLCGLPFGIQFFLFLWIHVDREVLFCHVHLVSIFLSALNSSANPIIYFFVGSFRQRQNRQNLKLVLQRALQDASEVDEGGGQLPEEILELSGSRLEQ

MRGX2 = molecular target: T1, MRGX2 (UniProt Q96LB1 1-330, limits assumed); test: cell-based or functional assay
T1 sequence (looked up): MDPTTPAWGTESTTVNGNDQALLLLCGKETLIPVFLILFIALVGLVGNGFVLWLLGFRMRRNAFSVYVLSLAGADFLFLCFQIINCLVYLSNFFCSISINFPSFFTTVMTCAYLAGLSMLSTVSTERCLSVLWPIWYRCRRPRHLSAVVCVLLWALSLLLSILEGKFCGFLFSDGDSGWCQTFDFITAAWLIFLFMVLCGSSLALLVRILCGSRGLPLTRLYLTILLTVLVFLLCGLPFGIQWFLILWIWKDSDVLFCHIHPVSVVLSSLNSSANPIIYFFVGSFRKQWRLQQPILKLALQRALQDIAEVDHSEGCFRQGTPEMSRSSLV

NK2 = molecular target: T2, NK2 (UniProt P21452 1-398); test: cell-based or functional assay
T2 sequence (looked up): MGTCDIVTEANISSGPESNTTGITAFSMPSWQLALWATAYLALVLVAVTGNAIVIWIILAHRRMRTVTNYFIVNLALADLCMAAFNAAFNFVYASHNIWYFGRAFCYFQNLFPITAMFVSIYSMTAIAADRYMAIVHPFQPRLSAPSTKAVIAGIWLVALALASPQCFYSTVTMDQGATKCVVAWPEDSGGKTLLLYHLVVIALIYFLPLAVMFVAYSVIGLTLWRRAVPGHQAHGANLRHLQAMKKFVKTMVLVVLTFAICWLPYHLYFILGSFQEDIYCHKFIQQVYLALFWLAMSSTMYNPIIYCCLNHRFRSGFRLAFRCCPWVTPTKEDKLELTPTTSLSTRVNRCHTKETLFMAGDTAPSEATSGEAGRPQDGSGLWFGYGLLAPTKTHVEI

NMUR1 = molecular target: T3, NMUR1 (UniProt Q9HB89 1-426, limits assumed); test: cell-based or functional assay
T3 sequence (looked up): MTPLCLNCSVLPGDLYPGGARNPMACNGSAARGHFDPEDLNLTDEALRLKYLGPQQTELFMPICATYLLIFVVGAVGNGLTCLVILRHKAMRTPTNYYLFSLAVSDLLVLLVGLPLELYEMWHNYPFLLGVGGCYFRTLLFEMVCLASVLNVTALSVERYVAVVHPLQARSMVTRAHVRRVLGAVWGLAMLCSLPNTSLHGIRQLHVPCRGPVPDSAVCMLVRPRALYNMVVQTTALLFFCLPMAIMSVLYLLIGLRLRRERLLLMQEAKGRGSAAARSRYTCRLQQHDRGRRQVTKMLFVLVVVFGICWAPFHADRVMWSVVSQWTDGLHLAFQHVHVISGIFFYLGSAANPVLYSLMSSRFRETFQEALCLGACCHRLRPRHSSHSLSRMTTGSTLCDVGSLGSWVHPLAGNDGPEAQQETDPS

NOP = NOP (UniProt P41146 1-370); test: cell-based or functional assay
Chain of NOP (P41146 whole entry): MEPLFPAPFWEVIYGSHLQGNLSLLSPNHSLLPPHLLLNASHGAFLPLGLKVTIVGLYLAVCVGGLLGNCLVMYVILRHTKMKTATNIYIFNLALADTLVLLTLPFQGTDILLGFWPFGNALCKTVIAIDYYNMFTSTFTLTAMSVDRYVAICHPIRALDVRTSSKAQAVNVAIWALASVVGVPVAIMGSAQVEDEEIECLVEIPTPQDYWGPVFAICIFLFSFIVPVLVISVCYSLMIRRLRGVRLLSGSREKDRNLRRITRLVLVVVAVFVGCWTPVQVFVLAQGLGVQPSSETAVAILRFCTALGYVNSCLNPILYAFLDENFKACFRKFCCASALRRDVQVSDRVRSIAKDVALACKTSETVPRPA

[2] = molecular target: MAS-related G-protein-coupled receptor member D (MRGD) (human, UniProt Q8TDS7 1-321); test: cell-based or functional assay
Chain of MAS-related G-protein-coupled receptor member D (MRGD) (Q8TDS7 whole entry): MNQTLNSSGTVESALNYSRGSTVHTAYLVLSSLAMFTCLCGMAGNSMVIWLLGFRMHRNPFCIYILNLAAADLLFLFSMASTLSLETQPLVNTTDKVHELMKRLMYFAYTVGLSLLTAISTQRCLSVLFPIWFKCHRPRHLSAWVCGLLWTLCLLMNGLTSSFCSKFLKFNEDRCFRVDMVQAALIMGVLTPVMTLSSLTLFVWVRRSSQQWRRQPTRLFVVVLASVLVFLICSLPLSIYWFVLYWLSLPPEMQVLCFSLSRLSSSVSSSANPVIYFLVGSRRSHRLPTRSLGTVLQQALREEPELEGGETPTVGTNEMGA

[3] = molecular target: GPCR40, the free fatty acid receptor (human, UniProt O14842 1-300); test: cell-based or functional assay
Chain of GPCR40, the free fatty acid receptor (O14842 whole entry): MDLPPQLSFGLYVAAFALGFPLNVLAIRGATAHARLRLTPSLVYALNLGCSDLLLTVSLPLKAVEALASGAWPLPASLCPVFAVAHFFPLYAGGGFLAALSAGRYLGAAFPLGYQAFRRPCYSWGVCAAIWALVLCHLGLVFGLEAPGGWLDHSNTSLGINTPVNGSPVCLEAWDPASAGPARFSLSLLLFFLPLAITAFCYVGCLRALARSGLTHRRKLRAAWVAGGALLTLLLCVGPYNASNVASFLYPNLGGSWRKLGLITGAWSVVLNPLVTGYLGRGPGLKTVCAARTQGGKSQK

MC2 = MC2 (UniProt Q01718 1-297); test: cell-based or functional assay
Chain of MC2 (Q01718 whole entry): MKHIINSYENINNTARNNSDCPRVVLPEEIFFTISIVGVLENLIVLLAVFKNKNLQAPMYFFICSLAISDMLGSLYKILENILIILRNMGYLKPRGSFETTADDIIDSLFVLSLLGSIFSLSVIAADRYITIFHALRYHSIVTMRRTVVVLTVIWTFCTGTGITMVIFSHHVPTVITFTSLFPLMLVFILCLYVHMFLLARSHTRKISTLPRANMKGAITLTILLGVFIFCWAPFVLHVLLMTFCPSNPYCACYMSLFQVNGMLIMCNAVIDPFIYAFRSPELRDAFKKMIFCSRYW

MC4 = MC4 (UniProt P32245 1-332); test: cell-based or functional assay
Chain of MC4 (P32245 whole entry): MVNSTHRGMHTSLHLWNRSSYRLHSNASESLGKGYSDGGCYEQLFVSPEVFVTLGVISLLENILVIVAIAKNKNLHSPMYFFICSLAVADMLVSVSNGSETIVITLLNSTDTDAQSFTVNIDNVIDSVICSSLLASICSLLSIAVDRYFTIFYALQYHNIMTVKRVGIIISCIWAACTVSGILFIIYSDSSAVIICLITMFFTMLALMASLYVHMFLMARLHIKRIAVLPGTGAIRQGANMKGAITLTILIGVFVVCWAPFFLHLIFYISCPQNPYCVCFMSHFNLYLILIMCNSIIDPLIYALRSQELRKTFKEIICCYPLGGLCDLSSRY

MC5 = MC5 (UniProt P33032 1-325); test: cell-based or functional assay
Chain of MC5 (P33032 whole entry): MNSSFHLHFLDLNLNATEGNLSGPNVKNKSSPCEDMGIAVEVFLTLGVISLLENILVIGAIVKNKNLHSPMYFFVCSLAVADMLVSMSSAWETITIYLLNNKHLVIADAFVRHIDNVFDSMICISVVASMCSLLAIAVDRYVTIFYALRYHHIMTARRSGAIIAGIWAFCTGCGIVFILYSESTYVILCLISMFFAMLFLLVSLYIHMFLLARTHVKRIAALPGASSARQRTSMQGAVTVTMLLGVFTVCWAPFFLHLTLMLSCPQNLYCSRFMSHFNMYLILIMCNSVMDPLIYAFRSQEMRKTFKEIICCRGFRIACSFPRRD

Chain of MCHR2 (Q969V1 whole entry): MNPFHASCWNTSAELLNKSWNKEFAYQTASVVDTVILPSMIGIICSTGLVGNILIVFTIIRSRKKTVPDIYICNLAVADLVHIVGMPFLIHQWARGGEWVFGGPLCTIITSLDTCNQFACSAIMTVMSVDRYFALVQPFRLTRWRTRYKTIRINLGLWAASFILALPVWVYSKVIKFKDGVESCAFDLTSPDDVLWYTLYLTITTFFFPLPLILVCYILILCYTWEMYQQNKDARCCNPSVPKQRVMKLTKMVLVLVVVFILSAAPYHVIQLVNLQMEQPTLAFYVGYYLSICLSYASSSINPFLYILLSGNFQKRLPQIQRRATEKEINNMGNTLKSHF

Molecule: CC(C)C[C@@H](NC(=O)CNC(=O)CN)C(=O)O
- nitric oxide (NO) release (HUVEC cells): Stimulates Nitric Oxide Release

Molecule: Gly-Gly-[dL] [DT-110, tripeptide glycine-glycine-D-leucine (GGdL)]
- percent activation (calcium flux, GPCRProfiler), DT-110 @ 1.25 mM, Avg. (MCHR2): 0.5%
- percent activation (calcium flux, GPCRProfiler), DT-110 @ 1.25 mM, n1 (MCHR2): 0.1%
- percent activation (calcium flux, GPCRProfiler), DT-110 @ 1.25 mM, n2 (MCHR2): 0.8%
- percent activation (calcium flux, GPCRProfiler), DT-110 @ 12.5 mM, Avg. (MCHR2): -0.9%
- percent activation (calcium flux, GPCRProfiler), DT-110 @ 12.5 mM, n1 (MCHR2): -0.8%
- percent activation (calcium flux, GPCRProfiler), DT-110 @ 12.5 mM, n2 (MCHR2): -0.9%
- percent activation (calcium flux, GPCRProfiler), DT-110 @ 1.25 mM, Avg. [1]: -0.3%
- percent activation (calcium flux, GPCRProfiler), DT-110 @ 1.25 mM, n1 [1]: -0.3%
- percent activation (calcium flux, GPCRProfiler), DT-110 @ 1.25 mM, n2 [1]: -0.3%
- percent activation (calcium flux, GPCRProfiler), DT-110 @ 12.5 mM, Avg. [1]: -0.4%
- percent activation (calcium flux, GPCRProfiler), DT-110 @ 12.5 mM, n1 [1]: -0.3%
- percent activation (calcium flux, GPCRProfiler), DT-110 @ 12.5 mM, n2 [1]: -0.5%
- percent activation (calcium flux, GPCRProfiler), DT-110 @ 1.25 mM, Avg. (MRGX1): -1.9%
- percent activation (calcium flux, GPCRProfiler), DT-110 @ 1.25 mM, n1 (MRGX1): -1.3%
- percent activation (calcium flux, GPCRProfiler), DT-110 @ 1.25 mM, n2 (MRGX1): -2.5%
- percent activation (calcium flux, GPCRProfiler), DT-110 @ 12.5 mM, Avg. (MRGX1): -6.6%
- percent activation (calcium flux, GPCRProfiler), DT-110 @ 12.5 mM, n1 (MRGX1): -6.7%
- percent activation (calcium flux, GPCRProfiler), DT-110 @ 12.5 mM, n2 (MRGX1): -6.6%
- percent activation (calcium flux, GPCRProfiler), DT-110 @ 1.25 mM, Avg. (MRGX2): -0.2%
- percent activation (calcium flux, GPCRProfiler), DT-110 @ 1.25 mM, n1 (MRGX2): 0%
- percent activation (calcium flux, GPCRProfiler), DT-110 @ 1.25 mM, n2 (MRGX2): -0.4%
- percent activation (calcium flux, GPCRProfiler), DT-110 @ 12.5 mM, Avg. (MRGX2): 0%
- percent activation (calcium flux, GPCRProfiler), DT-110 @ 12.5 mM, n1 (MRGX2): 0.4%
- percent activation (calcium flux, GPCRProfiler), DT-110 @ 12.5 mM, n2 (MRGX2): -0.4%
- percent activation (calcium flux, GPCRProfiler), DT-110 @ 1.25 mM, Avg. (NK2): -9.5%
- percent activation (calcium flux, GPCRProfiler), DT-110 @ 1.25 mM, n1 (NK2): -9.4%
- percent activation (calcium flux, GPCRProfiler), DT-110 @ 1.25 mM, n2 (NK2): -9.6%
- percent activation (calcium flux, GPCRProfiler), DT-110 @ 12.5 mM, Avg. (NK2): -9.6%
- percent activation (calcium flux, GPCRProfiler), DT-110 @ 12.5 mM, n1 (NK2): -9.5%
- percent activation (calcium flux, GPCRProfiler), DT-110 @ 12.5 mM, n2 (NK2): -9.7%
- percent activation (calcium flux, GPCRProfiler), DT-110 @ 1.25 mM, Avg. (NMUR1): 0.5%
- percent activation (calcium flux, GPCRProfiler), DT-110 @ 1.25 mM, n1 (NMUR1): 1.3%
- percent activation (calcium flux, GPCRProfiler), DT-110 @ 1.25 mM, n2 (NMUR1): -0.4%
- percent activation (calcium flux, GPCRProfiler), DT-110 @ 12.5 mM, Avg. (NMUR1): -0.1%
- percent activation (calcium flux, GPCRProfiler), DT-110 @ 12.5 mM, n1 (NMUR1): -0.7%
- percent activation (calcium flux, GPCRProfiler), DT-110 @ 12.5 mM, n2 (NMUR1): 0.5%
- percent activation (calcium flux, GPCRProfiler), DT-110 @ 1.25 mM, Avg. (NOP): -0.1%
- percent activation (calcium flux, GPCRProfiler), DT-110 @ 1.25 mM, n1 (NOP): -7.8%
- percent activation (calcium flux, GPCRProfiler), DT-110 @ 1.25 mM, n2 (NOP): 7.6%
- percent activation (calcium flux, GPCRProfiler), DT-110 @ 12.5 mM, Avg. (NOP): -2.3%
- percent activation (calcium flux, GPCRProfiler), DT-110 @ 12.5 mM, n1 (NOP): 3.4%
- percent activation (calcium flux, GPCRProfiler), DT-110 @ 12.5 mM, n2 (NOP): -8%
- percent activation (calcium flux, GPCRProfiler), DT-110 @ 1.25 mM, Avg. [2]: 69.2%
- percent activation (calcium flux, GPCRProfiler), DT-110 @ 1.25 mM, n1 [2]: 76.5%
- percent activation (calcium flux, GPCRProfiler), DT-110 @ 1.25 mM, n2 [2]: 62%
- percent activation (calcium flux, GPCRProfiler), DT-110 @ 12.5 mM, Avg. [2]: 64.5%
- percent activation (calcium flux, GPCRProfiler), DT-110 @ 12.5 mM, n1 [2]: 60.7%
- percent activation (calcium flux, GPCRProfiler), DT-110 @ 12.5 mM, n2 [2]: 68.3%
- percent activation (calcium flux, GPCRProfiler), DT-110 @ 1.25 mM, Avg. [3]: -9.5%
- percent activation (calcium flux, GPCRProfiler), DT-110 @ 1.25 mM, n1 [3]: -9.3%
- percent activation (calcium flux, GPCRProfiler), DT-110 @ 1.25 mM, n2 [3]: -9.6%
- percent activation (calcium flux, GPCRProfiler), DT-110 @ 12.5 mM, Avg. [3]: 50.2%
- percent activation (calcium flux, GPCRProfiler), DT-110 @ 12.5 mM, n1 [3]: 55.9%
- percent activation (calcium flux, GPCRProfiler), DT-110 @ 12.5 mM, n2 [3]: 44.5%
- percent activation (calcium flux, GPCRProfiler), DT-110 @ 1.25 mM, Avg. (MC2): -0.7%
- percent activation (calcium flux, GPCRProfiler), DT-110 @ 1.25 mM, n1 (MC2): 0.6%
- percent activation (calcium flux, GPCRProfiler), DT-110 @ 1.25 mM, n2 (MC2): -2%
- percent activation (calcium flux, GPCRProfiler), DT-110 @ 12.5 mM, Avg. (MC2): -1%
- percent activation (calcium flux, GPCRProfiler), DT-110 @ 12.5 mM, n1 (MC2): -1%
- percent activation (calcium flux, GPCRProfiler), DT-110 @ 12.5 mM, n2 (MC2): -0.9%
- percent activation (calcium flux, GPCRProfiler), DT-110 @ 1.25 mM, Avg. (MC4): -0.5%
- percent activation (calcium flux, GPCRProfiler), DT-110 @ 1.25 mM, n1 (MC4): 3%
- percent activation (calcium flux, GPCRProfiler), DT-110 @ 1.25 mM, n2 (MC4): -4%
- percent activation (calcium flux, GPCRProfiler), DT-110 @ 12.5 mM, Avg. (MC4): 3.4%
- percent activation (calcium flux, GPCRProfiler), DT-110 @ 12.5 mM, n1 (MC4): -0.2%
- percent activation (calcium flux, GPCRProfiler), DT-110 @ 12.5 mM, n2 (MC4): 7%
- percent activation (calcium flux, GPCRProfiler), DT-110 @ 1.25 mM, Avg. (MC5): 0%
- percent activation (calcium flux, GPCRProfiler), DT-110 @ 1.25 mM, n1 (MC5): 0.7%
- percent activation (calcium flux, GPCRProfiler), DT-110 @ 1.25 mM, n2 (MC5): -0.8%
- percent activation (calcium flux, GPCRProfiler), DT-110 @ 12.5 mM, Avg. (MC5): -0.3%
- percent activation (calcium flux, GPCRProfiler), DT-110 @ 12.5 mM, n1 (MC5): -0.6%
- percent activation (calcium flux, GPCRProfiler), DT-110 @ 12.5 mM, n2 (MC5): 0%
